Experimental data: article PMC9942828

Columns and labels:
[1] = target: PA-tagged SORLA VPS10p-domain (1 to 753), T659C mutant (human) (UniProt Q92673); experiment: cross-linking
[2] = target: SORLA dimer of SORLA-V1 and SORLA-V2 with reconstituted Venus (human) (UniProt Q92673); experiment: co-IP

Chain of UniProt Q92673 (Q92673 82-2214, chain 1 of 2): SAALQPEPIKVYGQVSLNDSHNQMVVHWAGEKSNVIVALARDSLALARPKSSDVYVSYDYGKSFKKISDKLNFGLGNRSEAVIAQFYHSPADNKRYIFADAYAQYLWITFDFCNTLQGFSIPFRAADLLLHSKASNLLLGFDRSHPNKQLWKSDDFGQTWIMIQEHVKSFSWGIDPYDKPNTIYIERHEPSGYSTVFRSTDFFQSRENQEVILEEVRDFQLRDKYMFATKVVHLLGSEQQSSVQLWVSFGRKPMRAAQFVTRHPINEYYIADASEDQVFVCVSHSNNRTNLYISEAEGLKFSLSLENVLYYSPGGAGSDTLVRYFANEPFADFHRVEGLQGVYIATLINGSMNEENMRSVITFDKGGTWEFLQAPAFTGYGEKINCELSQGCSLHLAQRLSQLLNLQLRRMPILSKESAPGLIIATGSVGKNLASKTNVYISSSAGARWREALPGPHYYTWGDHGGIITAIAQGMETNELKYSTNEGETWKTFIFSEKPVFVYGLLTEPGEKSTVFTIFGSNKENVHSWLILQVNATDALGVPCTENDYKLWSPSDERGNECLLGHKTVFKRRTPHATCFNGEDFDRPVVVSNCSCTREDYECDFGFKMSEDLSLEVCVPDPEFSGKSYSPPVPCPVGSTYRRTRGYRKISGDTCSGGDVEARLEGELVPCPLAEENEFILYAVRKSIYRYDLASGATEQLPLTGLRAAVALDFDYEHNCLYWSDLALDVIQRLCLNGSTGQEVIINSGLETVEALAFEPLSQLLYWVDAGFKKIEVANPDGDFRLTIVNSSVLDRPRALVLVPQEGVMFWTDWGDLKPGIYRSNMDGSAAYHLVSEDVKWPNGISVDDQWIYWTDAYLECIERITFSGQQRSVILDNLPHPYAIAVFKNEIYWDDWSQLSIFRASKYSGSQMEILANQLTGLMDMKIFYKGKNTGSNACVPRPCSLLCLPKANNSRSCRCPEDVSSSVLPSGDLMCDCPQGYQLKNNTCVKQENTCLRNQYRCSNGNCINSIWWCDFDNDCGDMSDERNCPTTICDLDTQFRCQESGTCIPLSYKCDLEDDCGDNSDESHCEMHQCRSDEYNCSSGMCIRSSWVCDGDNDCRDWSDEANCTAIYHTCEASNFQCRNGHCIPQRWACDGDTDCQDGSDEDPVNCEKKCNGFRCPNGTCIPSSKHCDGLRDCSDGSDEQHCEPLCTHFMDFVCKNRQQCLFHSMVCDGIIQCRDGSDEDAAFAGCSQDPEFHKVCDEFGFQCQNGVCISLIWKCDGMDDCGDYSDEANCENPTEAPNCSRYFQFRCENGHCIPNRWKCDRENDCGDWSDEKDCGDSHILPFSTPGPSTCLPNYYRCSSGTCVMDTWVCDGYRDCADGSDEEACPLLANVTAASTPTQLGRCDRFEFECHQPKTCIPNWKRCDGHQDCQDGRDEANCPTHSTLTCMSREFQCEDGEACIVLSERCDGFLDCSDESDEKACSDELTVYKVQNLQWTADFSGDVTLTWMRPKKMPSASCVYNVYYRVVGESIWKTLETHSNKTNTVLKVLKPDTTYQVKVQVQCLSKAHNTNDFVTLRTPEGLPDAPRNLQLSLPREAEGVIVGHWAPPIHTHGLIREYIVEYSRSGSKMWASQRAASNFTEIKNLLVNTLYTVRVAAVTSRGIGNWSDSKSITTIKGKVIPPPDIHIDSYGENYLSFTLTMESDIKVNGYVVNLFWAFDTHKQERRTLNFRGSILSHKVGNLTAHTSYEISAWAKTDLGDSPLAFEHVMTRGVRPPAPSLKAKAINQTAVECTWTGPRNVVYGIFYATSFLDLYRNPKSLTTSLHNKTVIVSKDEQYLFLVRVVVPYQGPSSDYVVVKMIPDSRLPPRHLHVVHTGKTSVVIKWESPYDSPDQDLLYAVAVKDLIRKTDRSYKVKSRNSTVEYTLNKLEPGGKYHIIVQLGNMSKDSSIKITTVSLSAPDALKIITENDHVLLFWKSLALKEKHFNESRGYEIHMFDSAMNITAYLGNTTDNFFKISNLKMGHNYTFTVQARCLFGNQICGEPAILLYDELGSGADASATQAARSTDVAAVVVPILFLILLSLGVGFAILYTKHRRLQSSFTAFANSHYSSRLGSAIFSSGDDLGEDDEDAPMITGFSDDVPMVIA
Chain of UniProt Q92673 (Q92673 82-2214, chain 2 of 2): as the sequence (Q92673 82-2214, chain 1 of 2) above

stoichiometry N [1]	co-IP product relative to total input [2]	Substance
2		PA-tagged SORLA VPS10p-domain (1 to 753), T659C mutant (from UniProt Q92673 29-753) (domain or fragment)
	6%	VPS26b subunit of retromer (from UniProt Q4G0F5 1-336) (natural protein)
